B1: CCND1 (parent)
chain: IRRAYPDANLLNDRVLRAMLKAEE
B2: SPDEF (parent)
chain: FQELAGKELCAMSEEQFRQRSPLG

Variants of: B1
Test: protein stability index of a GFP-peptide fusion (GPS, HEK-293T) (PSI 1-6); higher = more stable
Details: c terminus: a fixed tail appended
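Also: lentivirally expressed fusions sorted by FACS into six bins by GFP to DsRed ratio, PSI derived from sequencing read proportions per bin multiplied by bin number.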

Variant | protein stability index
E23Q | 3.18
E23T | 2.61
E23R | 2.37
E23Y | 2.45
E23S | 2.3
E23W | 1.84
E23V | 1.8
E24P | 2.39
E24L | 1.8
E24C | 2.08
E24H | 2.04
E24D | 2.67
E24M | 1.87
E24Y | 1.35
E24R | 2.02
E24S | 3.28
E24T | 2.33
E24I | 3
E24N | 2.7
E24V | 1.23
E24F | 1.55
E24K | 2.05
E24A | 3.57
E24W | 1.52

Variants of: B2
Test: as above
Details: c terminus: a fixed tail appended

Variant | protein stability index
L9Y | 3.25
L9R | 3.24
L9T | 3.69
L9H | 3.9
L9C | 2.63
L9V | 2.71
L9K | 3.61
L9I | 3.19
L9M | 3.41
L9S | 3.23
L9G | 4.34
L9N | 4.37
L9D | 4.79
L9E | 4.93
L9P | 3.83
L9W | 2.8
L9F | 2.56
L9A | 3.41
L9Q | 4.25
E8Y | 1.89
E8I | 1.53
E8T | 1.99
E8P | 2.06
E8M | 2.5

Variant | protein stability index
E8F | 2.79
E8A | 2.37
E8W | 2.87
E8D | 2.79
E8S | 2.12
E8G | 1.73
E8N | 2.27
E8V | 2.52
E8H | 1.77
E8Q | 2.25
E8K | 2.32
E8L | 2.5
E8R | 1.78
C10R | 3.12
C10V | 2.93
C10S | 3.4
C10E | 3.9
C10N | 3.1
C10D | 4.38
C10Y | 2.4
C10G | 3.05
C10M | 2.91
C10K | 2.67
C10W | 1.9

Variant | protein stability index
C10F | 2
C10H | 3.12
C10I | 3.34
C10A | 3.31
C10Q | 3.46
C10L | 2.79
C10T | 3.52
C10P | 4.32
L4E | 4.48
L4T | 3.94
L4V | 3.85
L4D | 4.38
L4F | 2.84
L4R | 3
L4S | 4.01
L4A | 3.35
L4N | 3.8
L4K | 3.59
L4Q | 3.91
L4Y | 2.61
L4H | 3.85
L4I | 3.15
L4M | 2.6
L4P | 3.99

Variant | protein stability index
L4C | 4.02
L4G | 3.97
L4W | 2.4
S13Y | 2.4
S13F | 2.15
S13N | 2.48
S13A | 3.62
S13L | 1.71
S13V | 3.05
S13W | 2.08
S13Q | 2.62
S13M | 2.45
S13K | 2.58
S13H | 2.2
S13C | 2.11
S13E | 2.61
S13G | 2.57
S13I | 2.19
S13T | 2.69
S13R | 2.73
S13P | 3.18
S13D | 2.89
Q16R | 2.6
Q16I | 2.49

Variant | protein stability index
Q16V | 2.28
Q16K | 2.28
Q16S | 2.56
Q16G | 2.74
Q16E | 3.06
Q16M | 2.23
Q16D | 3.23
Q16A | 3.12
Q16W | 1.92
Q16P | 2.47
Q16N | 2.74
Q16C | 2.86
Q16H | 2.43
Q16L | 2.2
Q16Y | 2.16
Q16T | 2.65
Q16F | 2.13
E14W | 2.95
E14M | 2.03
E14T | 1.89
E14Q | 2.63
E14F | 2.22
E14S | 2.3
E14N | 2.81

Variant | protein stability index
E14I | 1.8
E14H | 2.47
E14R | 2.52
E14C | 2.46
E14A | 2.28
E14V | 2.07
E14D | 2.89
E14L | 2.3
E14K | 2.15
E14G | 2.21
E14Y | 2.49
E14P | 2.38
K7Q | 4
K7V | 2.61
K7D | 4.25
K7I | 1.81
K7G | 3
K7C | 1.99
K7S | 2.94
K7L | 2.3
K7Y | 1.58
K7R | 2.3
K7F | 2.18
K7N | 2.84

Variant | protein stability index
K7P | 3.35
K7T | 3.38
K7H | 2.86
K7W | 1.73
K7M | 2.97
K7E | 3.66
K7A | 2.58
A11Y | 2.67
A11R | 2.52
A11T | 2.31
A11E | 3.49
A11C | 1.83
A11H | 3.35
A11V | 1.94
A11L | 2.23
A11Q | 3.55
A11I | 1.87
A11D | 4.66
A11F | 2.5
A11K | 2.61
A11S | 2.31
A11M | 2.35
A11N | 2.91
A11G | 2.94

Variant | protein stability index
A11P | 3.56
A11W | 2.83
E3F | 1.95
E3T | 2.22
E3V | 2.44
E3G | 2.11
E3M | 1.79
E3K | 3.3
E3L | 2.22
E3D | 2.1
E3N | 3.09
E3Q | 3.45
E3H | 3.36
E3W | 1.72
E3A | 3.06
E3C | 2.48
E3R | 3.33
E3S | 2.34
E3P | 2.64
E3I | 2.55
E3Y | 2.69
Q2C | 2.36
Q2V | 2.73
Q2D | 4.74

Variant | protein stability index
Q2K | 3.61
Q2E | 4.17
Q2N | 4.11
Q2F | 3.35
Q2Y | 2.96
Q2S | 2.55
Q2G | 2.44
Q2H | 2.57
Q2T | 1.94
Q2W | 2.14
Q2M | 2.65
Q2R | 3.32
Q2L | 2.12
Q2A | 2.07
Q2I | 2.17
Q2P | 2.86
M12E | 4.28
M12Q | 3.19
M12L | 2.72
M12I | 2.46
M12G | 3.04
M12A | 3.57
M12V | 2.83
M12R | 3.34

Variant | protein stability index
M12N | 3.3
M12Y | 2.88
M12K | 3.3
M12T | 3.4
M12P | 2.38
M12D | 3.83
M12H | 2.9
M12F | 2.47
M12C | 2.39
M12W | 1.79
M12S | 3.75
A5Y | 2.6
A5F | 2.5
A5K | 3.27
A5D | 3.71
A5I | 2.47
A5W | 1.9
A5N | 2.82
A5E | 3.83
A5Q | 3.32
A5R | 2.17
A5H | 2.73
A5C | 2.69
A5P | 3.58

Variant | protein stability index
A5G | 2.88
A5M | 2.58
A5L | 1.82
A5T | 2.46
A5V | 3.44
A5S | 2.24
F1P | 4.49
F1N | 4.72
F1Y | 3.02
F1G | 4.57
F1I | 3.88
F1C | 3.9
F1E | 5.36
F1S | 4.61
F1L | 4.45
F1V | 4.27
F1A | 4.29
F1R | 4.99
F1M | 3.98
F1T | 4.55
F1H | 4.02
F1Q | 4.93
F1D | 4.94
F1W | 2.93

Variant | protein stability index
F1K | 4.58
G6T | 3.32
G6W | 2.65
G6D | 3.62
G6V | 1.68
G6A | 2.4
G6M | 2.46
G6R | 2.58
G6Q | 2.68
G6H | 2.73
G6Y | 1.9
G6P | 3.7
G6C | 2.28
G6S | 2.53
G6K | 3.03
G6L | 2.44
G6F | 1.84
G6E | 4.18
G6I | 2.69
G6N | 3.4
F17H | 3.14
F17A | 3.37
F17G | 3.58
F17D | 3.85

Variant | protein stability index
F17E | 3.85
F17I | 3.22
F17C | 3.14
E15M | 2.19
E15F | 1.98
E15T | 2.38
E15W | 2.56
E15Q | 2.71
E15G | 2.3
E15H | 2.01
E15S | 2.21
E15P | 2.41
E15Y | 2.04
E15D | 2.74
E15L | 2.32
E15V | 1.93
E15C | 2.19
E15N | 2.13
E15R | 2.5
E15A | 3.05
E15I | 2.04
E15K | 2.24

From the supplement of paper PMC10567573
